Data on 15 sequences can be found in the supplement of paper PMC10724198.

Series [1] concerns Saccharomyces cerevisiae. Description: protein stability index of tFT-peptide fusion (C-terminal peptide) (PSI (0-1 scale)); higher = more stable (slower turnover). The settings on record: genetic background: wild type; temperature: 30 C.
The test system of series [2] is Saccharomyces cerevisiae. Described as above. As for the experimental part:
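MPS profiling in S. cerevisiae of the tFT-X12 degron library: putative degron peptides plus stable controls, 12 aa, fused to the C-terminus of a sfGFP-mCherry timer. Cells are FACS-sorted into 8 mCherry/sfGFP bins and deep-sequenced. PSI runs from 0 (unstable) to 1 (stable). Backgrounds are wild type, das1Δ and doa10Δ at 30 °C, and wild type, das1Δ, cdc34-1 and cdc53-1 at 37 °C; 2-3 technical replicates each.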

Setting [3] is: genetic background: cdc34-1, temperature: 37 C.
[4] abbreviates: genetic background: cdc53-1, temperature: 37 C.
The mark [5] stands for this setting: genetic background: das1 deletion, temperature: 30 C.
Where [6] appears, read: genetic background: das1 deletion, temperature: 37 C.
The mark [7] stands for this setting: genetic background: doa10 deletion, temperature: 30 C.
The mark [8] stands for this setting: genetic background: wild type, temperature: 30 C.
The mark [9] stands for this setting: genetic background: wild type, temperature: 37 C.

± gives the standard deviation of the averaged measurements.
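Note: PSI is a weighted mean of sequencing reads over stability bins, variants kept only with over 10 reads, mCherry proximal and sfGFP distal, peptide attached via GGGS linker.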

In the case of FLLFFVLRLLPC, the protein stability index in the series on Saccharomyces cerevisiae [1] was determined as 0.316 ± 0.018; with Saccharomyces cerevisiae [2] (setting [3]) it was 0.272 ± 0.0094; with Saccharomyces cerevisiae [2] (setting [4]) it was 0.293 ± 0.03; in the series with Saccharomyces cerevisiae [2] (setting [5]) it was 0.236 ± 0.035; in the series on Saccharomyces cerevisiae [2] (setting [6]), 0.396 ± 0.016; in the series on Saccharomyces cerevisiae [2] (setting [7]), 0.255 ± 0.013. Moreover, the values for the protein stability index in the series on Saccharomyces cerevisiae [2] (setting [8]) and in the series on Saccharomyces cerevisiae [2] (setting [9]) were 0.231 ± 0.026 and 0.376 ± 0.011, respectively.

In the case of FLPGEAVFVYCR, the protein stability index is 0.4334 ± 0.0032 with Saccharomyces cerevisiae [1]; 0.619 ± 0.016 in the series on Saccharomyces cerevisiae [2] (setting [3]); 0.616 ± 0.037 with Saccharomyces cerevisiae [2] (setting [4]); 0.372 ± 0.026 with Saccharomyces cerevisiae [2] (setting [5]); 0.627 ± 0.011 with Saccharomyces cerevisiae [2] (setting [6]); 0.365 ± 0.017 in the series with Saccharomyces cerevisiae [2] (setting [7]). Further, the protein stability index in the series on Saccharomyces cerevisiae [2] (setting [8]) was 0.391 ± 0.028; with Saccharomyces cerevisiae [2] (setting [9]), 0.64997 ± 0.00056.

Turning to FLSVGFSCSFVC, the protein stability index in the series on Saccharomyces cerevisiae [1] came out at 0.4939 ± 0.00094; in the series on Saccharomyces cerevisiae [2] (setting [3]), 0.674 ± 0.082; in the series with Saccharomyces cerevisiae [2] (setting [4]) it was 0.676 ± 0.034; in the series on Saccharomyces cerevisiae [2] (setting [5]), 0.599 ± 0.06; in the series with Saccharomyces cerevisiae [2] (setting [6]), 0.669 ± 0.04; with Saccharomyces cerevisiae [2] (setting [7]), 0.375 ± 0.024. For the same sequence, the values for the protein stability index in the series on Saccharomyces cerevisiae [2] (setting [8]) and in the series with Saccharomyces cerevisiae [2] (setting [9]) were 0.4115 ± 0.0017 and 0.609 ± 0.013, respectively.

FLSVLPLFAFFA: the protein stability index in the series with Saccharomyces cerevisiae [1] stood at 0.333 ± 0.0081; with Saccharomyces cerevisiae [2] (setting [3]), 0.581 ± 0.026; in the series on Saccharomyces cerevisiae [2] (setting [4]) it was 0.658 ± 0.045; in the series with Saccharomyces cerevisiae [2] (setting [5]), 0.552 ± 0.025; with Saccharomyces cerevisiae [2] (setting [6]) it was 0.68 ± 0.028; in the series with Saccharomyces cerevisiae [2] (setting [7]), 0.219 ± 0.011. The protein stability index in the series with Saccharomyces cerevisiae [2] (setting [8]) came to 0.258 ± 0.014; in the series on Saccharomyces cerevisiae [2] (setting [9]), 0.4221 ± 0.0032.

As for FLVCTFCRWVWL, the protein stability index with Saccharomyces cerevisiae [1] amounted to 0.233 ± 0.056; in the series on Saccharomyces cerevisiae [2] (setting [3]), 0.476 ± 0.079; with Saccharomyces cerevisiae [2] (setting [4]), 0.6 ± 0.039; with Saccharomyces cerevisiae [2] (setting [5]), 0.448 ± 0.028; with Saccharomyces cerevisiae [2] (setting [6]), 0.606 ± 0.025; in the series with Saccharomyces cerevisiae [2] (setting [7]), 0.165 ± 0.023. The protein stability index stood at 0.162 ± 0.012 with Saccharomyces cerevisiae [2] (setting [8]) and 0.249 ± 0.018 in the series on Saccharomyces cerevisiae [2] (setting [9]).

Take FLVFPLLIQFFL: the protein stability index is 0.36 ± 0.019 in the series with Saccharomyces cerevisiae [1]; 0.2311 ± 0.0022 in the series with Saccharomyces cerevisiae [2] (setting [3]); 0.303 ± 0.015 in the series on Saccharomyces cerevisiae [2] (setting [4]); 0.356 ± 0.04 in the series with Saccharomyces cerevisiae [2] (setting [5]); 0.4346 ± 0.0039 in the series on Saccharomyces cerevisiae [2] (setting [6]); 0.346 ± 0.0097 in the series on Saccharomyces cerevisiae [2] (setting [7]). The protein stability index was found to be 0.257 ± 0.014 with Saccharomyces cerevisiae [2] (setting [8]) and 0.323 ± 0.014 with Saccharomyces cerevisiae [2] (setting [9]).

For the sequence FPLGAQTWLCLS, the protein stability index in the series on Saccharomyces cerevisiae [1] turned out to be 0.318 ± 0.0065; in the series with Saccharomyces cerevisiae [2] (setting [3]), 0.645 ± 0.084; in the series with Saccharomyces cerevisiae [2] (setting [4]) it was 0.714 ± 0.012; in the series with Saccharomyces cerevisiae [2] (setting [5]), 0.609 ± 0.018; in the series on Saccharomyces cerevisiae [2] (setting [6]), 0.729 ± 0.022; in the series with Saccharomyces cerevisiae [2] (setting [7]) it was 0.199 ± 0.0021. Moreover, the protein stability index in the series on Saccharomyces cerevisiae [2] (setting [8]) turned out to be 0.24 ± 0.032; with Saccharomyces cerevisiae [2] (setting [9]) it was 0.466 ± 0.036.

In the case of FPLPPPGSPPPL, the protein stability index in the series with Saccharomyces cerevisiae [1] turned out to be 0.0293 ± 0.02; in the series with Saccharomyces cerevisiae [2] (setting [3]), 0.68 ± 0.035; in the series with Saccharomyces cerevisiae [2] (setting [4]), 0.7381 ± 0.0033; in the series with Saccharomyces cerevisiae [2] (setting [5]), 0.6712 ± 0.0062; in the series on Saccharomyces cerevisiae [2] (setting [6]), 0.735 ± 0.0085; in the series with Saccharomyces cerevisiae [2] (setting [7]) it was 0.682 ± 0.0071. The protein stability index with Saccharomyces cerevisiae [2] (setting [8]) worked out at 0.677 ± 0.011; in the series on Saccharomyces cerevisiae [2] (setting [9]), 0.707 ± 0.014.

In the case of FRFFYLPVSVVA, the protein stability index in the series on Saccharomyces cerevisiae [1] was 0.223 ± 0.027; in the series with Saccharomyces cerevisiae [2] (setting [3]), 0.0275 ± 0.013; in the series on Saccharomyces cerevisiae [2] (setting [4]), 0.0356 ± 0.0058; in the series with Saccharomyces cerevisiae [2] (setting [5]) it was 0.146 ± 0.036; with Saccharomyces cerevisiae [2] (setting [6]), 0.1275 ± 0.00029; with Saccharomyces cerevisiae [2] (setting [7]), 0.105 ± 0.02. The protein stability index in the series on Saccharomyces cerevisiae [2] (setting [8]) was determined as 0.142 ± 0.021; in the series on Saccharomyces cerevisiae [2] (setting [9]), 0.0865 ± 0.013.

On to FRHKLSLGLVIV, for which the protein stability index with Saccharomyces cerevisiae [1] turned out to be 0.507 ± 0.011; with Saccharomyces cerevisiae [2] (setting [3]), 0.54 ± 0.037; with Saccharomyces cerevisiae [2] (setting [4]), 0.555 ± 0.073; with Saccharomyces cerevisiae [2] (setting [5]), 0.396 ± 0.029; in the series on Saccharomyces cerevisiae [2] (setting [6]), 0.56 ± 0.0072; in the series with Saccharomyces cerevisiae [2] (setting [7]) it was 0.347 ± 0.012. Further, the protein stability index in the series with Saccharomyces cerevisiae [2] (setting [8]) is 0.377 ± 0.028; in the series with Saccharomyces cerevisiae [2] (setting [9]), 0.534 ± 0.014.

FRYLRPAFLLLH: the protein stability index worked out at 0.0906 ± 0.031 in the series on Saccharomyces cerevisiae [1]; 0.162 ± 0.071 with Saccharomyces cerevisiae [2] (setting [3]); 0.255 ± 0.029 in the series on Saccharomyces cerevisiae [2] (setting [4]); 0.355 ± 0.027 with Saccharomyces cerevisiae [2] (setting [5]); 0.442 ± 0.0055 in the series on Saccharomyces cerevisiae [2] (setting [6]); 0.0693 ± 0.00084 in the series on Saccharomyces cerevisiae [2] (setting [7]). The protein stability index amounted to 0.0405 ± 0.019 with Saccharomyces cerevisiae [2] (setting [8]) and 0.0854 ± 0.02 with Saccharomyces cerevisiae [2] (setting [9]).

With FSALAPTPLLPL, the protein stability index in the series on Saccharomyces cerevisiae [1] came to 0.706 ± 0.042; in the series on Saccharomyces cerevisiae [2] (setting [3]) it was 0.703 ± 0.055; in the series on Saccharomyces cerevisiae [2] (setting [4]) it was 0.7533 ± 0.0046; in the series with Saccharomyces cerevisiae [2] (setting [5]), 0.672 ± 0.029; in the series with Saccharomyces cerevisiae [2] (setting [6]), 0.739 ± 0.016; with Saccharomyces cerevisiae [2] (setting [7]), 0.662 ± 0.029. In addition, the results for the protein stability index in the series with Saccharomyces cerevisiae [2] (setting [8]) and in the series on Saccharomyces cerevisiae [2] (setting [9]) were 0.671 ± 0.016 and 0.7063 ± 0.0068, respectively.

As to FSFCFCFPLSSL, the protein stability index with Saccharomyces cerevisiae [1] is 0.301 ± 0.0084; in the series on Saccharomyces cerevisiae [2] (setting [3]) it was 0.5603 ± 0.0013; in the series on Saccharomyces cerevisiae [2] (setting [4]), 0.683 ± 0.053; with Saccharomyces cerevisiae [2] (setting [5]), 0.528 ± 0.018; in the series with Saccharomyces cerevisiae [2] (setting [6]), 0.6285 ± 0.0038; in the series on Saccharomyces cerevisiae [2] (setting [7]) it was 0.209 ± 0.011. Moreover, the protein stability index in the series on Saccharomyces cerevisiae [2] (setting [8]) was determined as 0.248 ± 0.013; in the series with Saccharomyces cerevisiae [2] (setting [9]), 0.407 ± 0.015.

For FSPSPVFVTCRV, the protein stability index in the series on Saccharomyces cerevisiae [1] came to 0.356 ± 0.01; with Saccharomyces cerevisiae [2] (setting [3]) it was 0.247 ± 0.027; in the series with Saccharomyces cerevisiae [2] (setting [4]), 0.255 ± 0.013; in the series on Saccharomyces cerevisiae [2] (setting [5]), 0.208 ± 0.047; in the series with Saccharomyces cerevisiae [2] (setting [6]), 0.343 ± 0.0046; in the series on Saccharomyces cerevisiae [2] (setting [7]), 0.182 ± 0.0066. Moreover, the protein stability index in the series with Saccharomyces cerevisiae [2] (setting [8]) worked out at 0.218 ± 0.031; in the series with Saccharomyces cerevisiae [2] (setting [9]), 0.296 ± 0.011.

Turning to FTRLDYKRIKIV, the protein stability index in the series with Saccharomyces cerevisiae [1] was determined as 0.102 ± 0.024; in the series on Saccharomyces cerevisiae [2] (setting [3]), 0.184 ± 0.18; in the series on Saccharomyces cerevisiae [2] (setting [4]) it was 0.625 ± 0.15; in the series with Saccharomyces cerevisiae [2] (setting [5]), 0.62 ± 0.017; in the series on Saccharomyces cerevisiae [2] (setting [6]) it was 0.768 ± 0.068; in the series on Saccharomyces cerevisiae [2] (setting [7]) it was 0.0655 ± 0.014. Besides, the protein stability index came to 0.0685 ± 0.03 in the series on Saccharomyces cerevisiae [2] (setting [8]) and 0.0698 ± 0.0013 in the series with Saccharomyces cerevisiae [2] (setting [9]).
